According to patent US6403765B1, “Truncated Apaf-1 and methods of use thereof” (Thomas Jefferson University, priority 1998, dated 2002):
Each block holds one molecule with its values, some of them ahead of it.

Assays:
MCF-7 cells = experiment: Inhibition of apoptosis in transfected MCF-7 cells; type: cell-based; conditions: apoptosis induced by UV, Fas agonist antibody, TRAIL, or overexpression of DR4 and DR5, FIG. 17
Description: To express the caspases or truncated Apaf-1 in mammalian cells and assay their apoptotic activity, they were amplified with the T7-tag primer and reverse primers using the pET28a constructs as templates, and subcloned into the mammalian double expression vector pRSC-LacZ (MacFarlane et al., J. Biol. Chem., 272:25417-25420, 1997; Tsang et al., Bio/Technology, 22:68, 1997) or as previously described (Li et al., Cell 91:479-489, 1997; Srinivasula et al., J. Biol. Chem., 272:18452-18545, 1997). This vector allows the expression of lacZ under the Rous Sarcoma virus promoter, and the test cDNA under the CMV promoter. To assay for apoptosis, MCF-7 or 293 cells were transfected, using the method commercially available as the Lipofect Amine method (Life Technologies, Inc.), with the pRSC-LacZ constructs in the presence or absence of different apoptosis-inhibitors. 30 h after transfection cells were stained with β-galactosidase and examined for morphological signs of apoptosis. The percentage of round blue apoptotic cells (mean±SD) were determined by phase contrast microscopy and then represented as a function of total blue cells under each condition (n≧3).

procaspase-9 = target: T1, procaspase-9 (Homo sapiens, UniProt P55211); experiment: In vitro caspase 9 activation assay: recombinant Apaf-1 variants incubated with in vitro translated procaspase-9; type: biochemical; conditions: bacterial lysates with truncated Apaf-1 variants, FIG. 2B
T1 construct: schematic representation of full length procaspase-9; made in house; host or cells: coupled in vitro transcription/translation in rabbit reticulocyte lysate (TNT Kit, Promega)
T1 sequence (P55211 1-416): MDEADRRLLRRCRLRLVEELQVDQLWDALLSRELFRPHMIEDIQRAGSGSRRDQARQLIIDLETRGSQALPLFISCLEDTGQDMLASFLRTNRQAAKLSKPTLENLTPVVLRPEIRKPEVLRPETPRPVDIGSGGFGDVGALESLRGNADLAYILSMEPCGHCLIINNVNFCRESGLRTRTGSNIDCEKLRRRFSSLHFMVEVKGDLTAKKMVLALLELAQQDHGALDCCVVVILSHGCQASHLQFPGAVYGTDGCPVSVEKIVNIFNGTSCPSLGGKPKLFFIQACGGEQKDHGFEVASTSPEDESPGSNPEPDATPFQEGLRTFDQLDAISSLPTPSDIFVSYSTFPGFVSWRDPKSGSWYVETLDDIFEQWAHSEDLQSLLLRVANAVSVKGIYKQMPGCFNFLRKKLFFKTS
Procedure: SDS sample buffer was then added to each sample, boiled and subjected to SDS-PAGE analysis followed by autoradiography. In FIG. 2A procaspase-9 was in vitro translated in the presence of ^35S-methionine. Following translation procaspase-9 was desalted by gel filtration through a biospin column (BioRad) to remove unincorporated methionine and free nucleotides. Desalted procaspase-9 was then incubated with 200 ng Ni^2+-affinity purified bacterially expressed recombinant Apaf-530 (WT or K149R mutant) in the presence or absence of cytochrome c or dATP or both for 2 h at 30° C. A mock sample containing Ni^2+-affinity purified material from bacteria transformed with an empty vector was used as a negative control. Following incubation the products were analyzed by SDS-PAGE and autoradiography. In FIG. 2B^35S-labeled procaspase-9 (as described above) was incubated with bacterial lysates containing truncated Apaf-1 variants as indicated and then analyzed as above (2B upper panel). The bacterial lysates were analyzed by SDS-PAGE and immunoblotted with an Apaf-1 antibody which recognizes the N-terminus of Apaf-1 (lanes 2-6) and an anti T7-tag antibody (lanes 7-8) to confirm expression and equivalent concentration of the different Apaf-1 variants (2B lowerpanel). The molecular mass markers are indicated to the right of the lower panel.
^35S-labeled caspases were obtained by in vitro translation in the presence of ^35S-methionine using a coupled transcription/translation system in rabbit reticulocyte lysate using TNT Kit (Promega) according to the manufacturer's recommendations.
To determine the role of the WD-40 repeat in the mechanism of Apaf-1-induced processing of procaspase-9, truncated Apaf-1 (Apaf-530) lacking its WD-40 repeats (FIG. 1) was expressed and purified. To reconstitute a recombinant caspase-9 activation system, the truncated Apaf-530 was incubated with in vitro translated recombinant procaspase-9 in the presence or absence of cytochrome c and dATP. […] It was previously shown that mutation of CED-4 K165R which is required for nucleotide binding destroys its activity (Chinnaiyan et al., Nature 388:728-729, 1997; Jarnes et al., Curr. Biol. 7:246-252, 1997; Seshagiri and Miller, Curr. Biol. 7:455-460, 1997). […] Therefore, either binding of Apaf-1 to cytochrome c and dATP or deletion of the repeats could induce a conformational change enabling Apaf-1 to bind and process procaspase-9.
In FIG. 3, ^35S-labeled WT or mutant D330A, D315A or C287A mutants of procaspase-9 or prodomainless procaspase-9 (Δpro, residues 134-416) were incubated with buffer (lanes 1, 4, 7, 10, 13), purified Apaf-530 (lanes 2, 5, 8, 11, 14) or mock purified material (lanes, 3, 6, 9, 12, 15) and then analyzed by SDS-PAGE and autoradiography.

T7-tagged Apaf-530 = target: T2, T7-tagged Apaf-530 (Homo sapiens, UniProt O14727); experiment: Co-immunoprecipitation of Flag-tagged Apaf-1 variants with T7-tagged Apaf-530 in 293 cells; type: binding; conditions: anti-Flag immunoprecipitation, anti-T7 blot, 36 hours, FIG. 11
T2 construct: expressed in transfected cells; host or cells: 293 cells
T2 sequence (O14727 1-530 isoform O14727-3): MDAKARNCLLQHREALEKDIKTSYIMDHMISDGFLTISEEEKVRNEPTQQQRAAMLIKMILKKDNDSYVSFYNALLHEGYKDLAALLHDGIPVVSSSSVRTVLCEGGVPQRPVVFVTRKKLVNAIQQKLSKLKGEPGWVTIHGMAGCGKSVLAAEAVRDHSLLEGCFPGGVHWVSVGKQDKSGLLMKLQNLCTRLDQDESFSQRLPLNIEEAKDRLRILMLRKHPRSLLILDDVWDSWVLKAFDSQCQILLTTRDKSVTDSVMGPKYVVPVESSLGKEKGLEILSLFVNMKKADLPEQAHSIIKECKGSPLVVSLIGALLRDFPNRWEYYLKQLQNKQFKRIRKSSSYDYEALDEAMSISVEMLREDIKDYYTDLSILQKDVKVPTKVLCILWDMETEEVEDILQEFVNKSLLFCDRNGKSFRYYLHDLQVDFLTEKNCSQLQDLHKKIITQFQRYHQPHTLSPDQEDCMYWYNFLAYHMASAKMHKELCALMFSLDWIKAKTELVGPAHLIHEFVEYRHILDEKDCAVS
Procedure: The ability of APAF-530 to oligomerize pro-caspase-9 was tested. Co-transfection experiments in 293 cells were performed with T7-tagged Apaf-530 and different Flag-tagged Apaf-1 variants, and cell lysates were prepared and immunoprecipitated with an anti-Flag antibody. The immunoprecipitates were analyzed by Western blotting with an anti-T7 antibody.
In FIG. 11, 293 cells were co-transfected with constructs encoding T7-tagged Apaf-530 and an empty vector (lane 1) or constructs encoding Flag-tagged Apaf-1 (lane 2), Flag-tagged Apaf-530 (lane 3), Flag-tagged Apaf-530ΔCARD (lane 4) or Flag-tagged Apaf-97 (lane 5). After 36 hours, extracts were prepared and immunoprecipitated with a monoclonal antibody to the Flag epitope. The immunoprecipitates (upper panel) were analyzed by SDS-PAGE and immunoblotted with a horseradish peroxides-conjugated T7 antibody. The corresponding cellular extracts were also analyzed by SDS-PAGE and immunoblotted with a horseradish peroxides-conjugated T7 antibody (middle panel) or an anti-Flag antibody (lower panel).

T7-tagged Bcl-xL = target: T3, T7-tagged Bcl-xL (Homo sapiens, UniProt Q07817); experiment: Co-immunoprecipitation of Flag-tagged Apaf-1 variants or procaspase-9 with T7-tagged Bcl-xL in 293 cells; type: binding; conditions: anti-Flag immunoprecipitation, anti-T7 blot, 36 hours, FIG. 16
T3 construct: expressed in transfected cells; host or cells: 293 cells
T3 sequence (Q07817 whole entry): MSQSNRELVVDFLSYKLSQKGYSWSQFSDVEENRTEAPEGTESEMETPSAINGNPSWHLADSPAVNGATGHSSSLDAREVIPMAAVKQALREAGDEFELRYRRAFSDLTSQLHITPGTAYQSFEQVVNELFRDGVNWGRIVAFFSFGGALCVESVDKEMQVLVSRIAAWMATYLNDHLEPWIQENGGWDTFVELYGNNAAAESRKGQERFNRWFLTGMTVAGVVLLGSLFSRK
Procedure: In vivo interaction experiments between Apaf-1 variants and Bcl-xL were performed. To analyze the ability of Apaf-1 to interact with Bcl-xL, 293 cells were co-transfected with constructs encoding T7-tagged Bcl-xL and constructs encoding Flag-tagged Apaf-97 (FIG. 16, lane 1), Apaf-1 (FIG. 16, lane 2), Apaf-530 (FIG. 16, lane 3) Apaf-530ΔCARD (FIG. 16, lane 4), or procaspase-9 C287A (FIG. 16, lane 5). After 36 hours, extracts were prepared and immunoprecipitated with a monoclonal antibody to the Flag epitope. The immunoprecipitates (FIG. 16, upper panel) were analyzed by SDS-PAGE and immunoblotted with a horseradish peroxidase-conjugated T7 antibody. The corresponding cellular extracts were also analyzed by SDS-PAGE and immunoblotted with a horseradish peroxides-conjugated T7 antibody (FIG. 16, middle panel) or an anti-Flag antibody (FIG. 16, lower panel).

Molecule: Bcl-xL: Bcl-xL expressed from a transfected construct as apoptosis inhibitor comparator [reference compound]
inhibition of apoptosis (MCF-7 cells): inhibition

activity of the Apaf-1 variant in promoting activation of procaspase-9 (procaspase-9): inactivated
co-immunoprecipitation with T7-Apaf-530 (T7-tagged Apaf-530): not
co-immunoprecipitation with Bcl-xL (T7-tagged Bcl-xL): not
B1: Apaf-97: truncated Apaf-1, residues 1-97, entire CED-4 homology region deleted (protein)
chain: MDAKARNCLLQHREALEKDIKTSYIMDHMISDGFLTISEEEKVRNEPTQQQRAAMLIKMILKKDNDSYVSFYNALLHEGYKDLAALLHDGIPVVSSS
modifications: left off: small tags and cut ends
notes: truncated Apaf-1, residues 1-97, entire CED-4 homology region deleted

co-immunoprecipitation with T7-Apaf-530 (T7-tagged Apaf-530): co-immunoprecipitated
co-immunoprecipitation with Bcl-xL (T7-tagged Bcl-xL): capable of immunoprecipitating Bcl-xL
B2: Apaf-1: full length Apaf-1, 1194 amino acids (protein)
chain: MDAKARNCLLQHREALEKDIKTSYIMDHMISDGFLTISEEEKVRNEPTQQQRAAMLIKMILKKDNDSYVSFYNALLHEGYKDLAALLHDGIPVVSSSSVRTVLCEGGVPQRPVVFVTRKKLVNAIQQKLSKLKGEPGWVTIHGMAGCGKSVLAAEAVRDHSLLEGCFPGGVHWVSVGKQDKSGLLMKLQNLCTRLDQDESFSQRLPLNIEEAKDRLRILMLRKHPRSLLILDDVWDSWVLKAFDSQCQILLTTRDKSVTDSVMGPKYVVPVESSLGKEKGLEILSLFVNMKKADLPEQAHSIIKECKGSPLVVSLIGALLRDFPNRWEYYLKQLQNKQFKRIRKSSSYDYEALDEAMSISVEMLREDIKDYYTDLSILQKDVKVPTKVLCILWDMETEEVEDILQEFVNKSLLFCDRNGKSFRYYLHDLQVDFLTEKNCSQLQDLHKKIITQFQRYHQPHTLSPDQEDCMYWYNFLAYHMASAKMHKELCALMFSLDWIKAKTELVGPAHLIHEFVEYRHILDEKDCAVSENFQEFLSLNGHLLGRQPFPNIVQLGLCEPETSEVYQQAKLQAKQEVDNGMLYLEWINKKNITNLSRLVVRPHTDAVYHACFSEDGQRIASCGADKTLQVFKAETGEKLLEIKAHEDEVLCCAFSTDDRFIATCSVDKKVKIWNSMTGELVHTYDEHSEQVNCCHFTNSSHHLLLATGSSDCFLKLWDLNQKECRNTMFGHTNSVNHCRFSPDDKLLASCSADGTLKLWDATSANERKSINVKQFFLNLEDPQEDMEVIVKCCSWSADGARIMVAAKNKIFLWNTDSRSKVADCRGHLSWVHGVMFSPDGSSFLTSSDDQTIRLWETKKVCKNSAVMLKQEVDVVFQENEVMVLAVDHIRRLQLINGRTGQIDYLTEAQVSCCCLSPHLQYIAFGDENGAIEILELVNNRIFQSRFQHKKTVWHIQFTADEKTLISSSDDAEIQVWNWQLDKCIFLRGHQETVKDFRLLKNSRLLSWSFDGTVKVWNIITGNKEKDFVCHQGTVLSCDISHDATKFSSTSADKTAKIWSFDLLLPLHELRGHNGCVRCSAFSVDSTLLATGDDNGEIRIWNVSNGELLHLCAPLSEEGAATHGGWVTDLCFSPDGKMLISAGGYIKWWNVVTGESSQTFYTNGTNLKKIHVSPDFKTYVTVDNLGILYILQTLE
modifications: left off: small tags and cut ends
notes: full length Apaf-1, 1194 amino acids

activity of the Apaf-1 variant in promoting activation of procaspase-9 (procaspase-9): inactivated
co-immunoprecipitation with T7-Apaf-530 (T7-tagged Apaf-530): co-immunoprecipitated
co-immunoprecipitation with Bcl-xL (T7-tagged Bcl-xL): capable of immunoprecipitating Bcl-xL
B3: Apaf-530ΔCARD: truncated Apaf-1, residues 98-530, CARD domain deleted (protein)
chain: SVRTVLCEGGVPQRPVVFVTRKKLVNAIQQKLSKLKGEPGWVTIHGMAGCGKSVLAAEAVRDHSLLEGCFPGGVHWVSVGKQDKSGLLMKLQNLCTRLDQDESFSQRLPLNIEEAKDRLRILMLRKHPRSLLILDDVWDSWVLKAFDSQCQILLTTRDKSVTDSVMGPKYVVPVESSLGKEKGLEILSLFVNMKKADLPEQAHSIIKECKGSPLVVSLIGALLRDFPNRWEYYLKQLQNKQFKRIRKSSSYDYEALDEAMSISVEMLREDIKDYYTDLSILQKDVKVPTKVLCILWDMETEEVEDILQEFVNKSLLFCDRNGKSFRYYLHDLQVDFLTEKNCSQLQDLHKKIITQFQRYHQPHTLSPDQEDCMYWYNFLAYHMASAKMHKELCALMFSLDWIKAKTELVGPAHLIHEFVEYRHILDEKDCAVS
modifications: left off: small tags and cut ends
notes: truncated Apaf-1, residues 98-530, CARD domain deleted
